# According to patent publication US20250325682A1, “FKBP52-DERIVED THERAPEUTIC PEPTIDES THAT INHIBIT PATHOLOGICAL TAU AGGREGATION FOR THERAPEUTIC PURPOSES” (priority 2024, published 2025):
# Ends that are not written are not given here.
# B1: YARAAARQARA-P50 (peptide)
# chain: YARAAARQARAAKPNEGAIVEVALEGYYKDKLFDQRELRFEIGEGENLDLPYGLERAIQRM
# Tests used:
# Tau-P301L = target: T1, Tau-P301L (Homo sapiens, UniProt P10636, P618L); test: Thioflavine T fluorescence assay of seeded Tau-P301L aggregation; format: biochemical; settings: for Tau-P301L aggregate formation (ThT fluorescence intensity): Tau-P301L 5 μM with Tau seeds, peptide 50 μM, fluorescence at 24 h, ±SEM, n=3, remaining aggregation
# T1 construct: made in house; host or cells: Escherichia coli BL21
# Excerpt: Protein purification. Recombinant wild-type Tau and Tan with P301L mutation proteins was expressed in Escherichia coli (E. coli, BL21) and purified as described; Goedert M, Jakes R (1990) Expression of separate isoforms of human tau protein: correlation with the tau pattern in brain and effects on tubulin polymerization. EMBO J 9, 4225-4230. Combs B, Tiernan C T, Hamel C, Kanaan N M (2017) Production of recombinant tau oligomers in vitro. Methods Cell Biol 141, 45-64.
# Effect of P35 on Tau-P30IL aggregation. Tau-P301L protein is used in all aggregation assays. Tau seeds are prepared during a first polymerization: 15UM of monomeric Tau-P301L was incubated at 37° C. in polymerization buffer (PI-buffer): NaH2PO4 25 mM, Na2HPO4 25 mM, NaCl 25 mM, EDTA SmM PH 6,6 with heparin 7.5 μM, Thioflavine-T 50 μM, and Dithiothreitol (DTT) 0.3 mM in a final volume of 100 μl. Fluorescence was monitored every 30 minutes during 25 hours at 480 nm (excitation at 450 nm) using Perkin-Elmer Endvision spectrophotometer. After polymerization, samples (100 μl) were centrifuged at 20,000 g for 1 hour at 4° C. The pellets were resuspended in 100 μl of PI-buffer and sonicated (Branson sonicator) at 40%, 3 times of 1 second, in order to obtain small pre-formed Tau fibrils used as seeds for the second polymerization assay. A volume of 18% of Tau seeds was pre-incubated in the same buffer of the first polymerization, with or without polypeptides, during 1 h at 37° C. Subsequently, 5 μM of monomeric Tau-P301L was added and fluorescence was monitored in the same conditions.
# [1] = tested on: hTau-P301S mouse DRG neurons; test: Western blot of sarkosyl-insoluble Tau fraction of peptide-treated DRG neurons; format: cell-based; settings: peptide 200 nM in cell medium for 15 days, compared to scramble control
# Procedure: DRG culture and western-blot analyses. DRG neurons were collected from hTau-P301S mice spinal cords as described by Sleigh and dissociated with collagenase (ThermoFisher Scientific, 17100-017) 2900 U/mL during 90 min followed by 0.1% trypsin (Life Technologies, 15090-046) 3 mM EDTA containing DNaseI (50 μg/mL; Sigma-Aldrich, 04536282001) for 5 min; Sleigh J N, Weir G A, Schiavo G, A simple, step-by-step dissection protocol for the rapid isolation of mouse dorsal root ganglia. BMC RES NOTES, 2016, 9, 82.
# Cell treatment was stopped using 1×PBS (VWR, X0515-500) supplemented with 2% horse serum (ThermoFisher Scientific, 16050-122), and DRG neurons were dissociated with a Pasteur pipette. Cells were then centrifuged for 5 min at 1,300 g and the pellet was resuspended in DMEM (Fisher Scientific, 12077549) with 9% fetal bovine serum. After filtration on a 0.40 μm filter followed by centrifugation 5 min at 1,300 g. the pellet was resuspended in neurobasal medium complemented with B27 (50×), L-glutamine (100×) (Life Technologies, 11530536 and 25030024 respectively), NGF 2.5 S (27 ng/ml; ThermoFisher, 13257-019) and distributed in 2 wells of a 6-well culture plate. Cell cultures were maintained for 15 days in vitro (DIV) and the cell medium complemented with mitomycine C (Sigma-Aldrich, M4287) and 5-Fluorodeoxy-uridine (Sigma-Aldrich, F0503) was changed twice a week. Cells were harvested by scraping, centrifuged for 10 min at 200 g and the pellet was homogenized using PotterElvehjem 18 in cold extraction buffer (50 mM Tris-HCl, pH 7.5, 100 mM NaCl, 0.5% SDS, 2 mM CaCl2, 2 mM MgCl2) supplemented with a cocktail of protease and phosphatase inhibitors (Roche, 11836145001). […] Each sample was analyzed on a 10% SDS Page gel and transferred onto iBlot™ Gel Transfer membranes (Invitrogen, IB23001, IB24002). […] Images were recorded with the GeneGnome5 (Syngene). Quantification was performed using Genetools analysis software (Syngene).
# DRGs treatment with peptides. […] After cell lysis, lysates were then analyzed by western-blot as described in “DRG culture and western-blot analyses”.
# T1 sequence (P10636 1-441 isoform P10636-8 P301L): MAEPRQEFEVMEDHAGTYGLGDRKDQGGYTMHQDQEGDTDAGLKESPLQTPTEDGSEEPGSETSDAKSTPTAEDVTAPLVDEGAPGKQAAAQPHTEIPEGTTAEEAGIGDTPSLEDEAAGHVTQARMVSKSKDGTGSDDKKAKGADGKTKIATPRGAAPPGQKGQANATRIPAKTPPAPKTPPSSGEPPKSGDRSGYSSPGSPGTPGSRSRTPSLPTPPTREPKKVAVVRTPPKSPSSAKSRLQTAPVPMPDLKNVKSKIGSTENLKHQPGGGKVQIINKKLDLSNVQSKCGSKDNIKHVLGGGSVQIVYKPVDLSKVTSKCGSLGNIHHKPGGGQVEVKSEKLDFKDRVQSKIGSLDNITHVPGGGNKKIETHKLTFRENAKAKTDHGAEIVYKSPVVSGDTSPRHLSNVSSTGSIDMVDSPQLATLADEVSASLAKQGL
Molecule,Tau-P301L aggregate formation (ThT fluorescence intensity) (Tau-P301L) [%],"insoluble Tau forms / Tau-P301S aggregation (western blot, sarkosyl-insoluble fraction) [1]",further results
AKPNEGAIVEVALEGYYKDKLFDQRELRFEIGEGE (Ac-AKPNEGAIVEVALEGYYKDKLFDQRELRFEIGEGE; not fully specified (C-terminus); listed as Homo sapiens) [P35],80.6,–,–
AKPNEGAIVEVALEGYYKDKLFDQRELRFEIGEGENLDLPYGLERAIQRM (listed as Homo sapiens) [P50],–,–,"effect on Tau-P301L aggregation in vitro (in words) (Tau-P301L; in vitro incubation of Tau-P301L with peptide, data not shown): comparable effects than P35"
"IRFKVLEGLYGEVDEAKEGNEAKAEGLQEYPDFIR [P35sc, reference compound]",91.4,–,–
YARAAARQARA-P35 (YARAAARQARAAKPNEGAIVEVALEGYYKDKLFDQRELRFEIGEGE) [YARA-P35],–,tends to show a decrease of Tau-P301S aggregation,–
B1,–,decrease of insoluble Tau forms,"insoluble Tau forms / Tau-P301S aggregation (western blot, sarkosyl-insoluble fraction) ([1]; listed as YARA-PSO): tends to show a decrease of Tau-P301S aggregation"
